Target: T1, IFITM3-C-LgBiT (human, UniProt Q01628 1-133)
T1 construct: also called C-terminal tagged IFITM3; not shown: LgBiT, C-terminal, kept
Assay: split reporter (BiFC, NanoBiT)
Settings: partners not purified

T1 sequence (Q01628 whole entry): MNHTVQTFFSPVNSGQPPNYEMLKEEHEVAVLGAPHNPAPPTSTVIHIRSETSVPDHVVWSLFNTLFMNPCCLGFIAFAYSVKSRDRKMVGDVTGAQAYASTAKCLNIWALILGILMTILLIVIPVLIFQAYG

B1: ZMPSTE24-C-SmBiT (natural protein, human, UniProt O75844 1-475, looked up)
chain: MGMWASLDALWEMPAEKRIFGAVLLFSWTVYLWETFLAQRQRRIYKTTTHVPPELGQIMDSETFEKSRLYQLDKSTFSFWSGLYSETEGTLILLFGGIPYLWRLSGRFCGYAGFGPEYEITQSLVFLLLATLFSALTGLPWSLYNTFVIEEKHGFNQQTLGFFMKDAIKKFVVTQCILLPVSSLLLYIIKIGGDYFFIYAWLFTLVVSLVLVTIYADYIAPLFDKFTPLPEGKLKEEIEVMAKSIDFPLTKVYVVEGSKRSSHSNAYFYGFFKNKRIVLFDTLLEEYSVLNKDIQEDSGMEPRNEEEGNSEEIKAKVKNKKQGCKNEEVLAVLGHELGHWKLGHTVKNIIISQMNSFLCFFLFAVLIGRKELFAAFGFYDSQPTLIGLLIIFQFIFSPYNEVLSFCLTVLSRRFEFQADAFAKKLGKAKDLYSALIKLNKDNLGFPVSDWLFSMWHYSHPPLLERLQALKTMKQH
notes: also called C-terminal tagged ZMPSTE24; not shown: SmBiT, C-terminal, kept
- luminescence relative to the negative control pairs: ~12 fold
